Test [1] addresses SARS-CoV-2 Omicron JD.1.1 spike (S-6P) (SARS-CoV-2) (UniProt P0DTC2). The test is described as follows: cryo-EM structure.
The target of test [2] is SARS-CoV-2 Omicron LP.8.1 spike (S-6P) (SARS-CoV-2) (UniProt P0DTC2). The test is described as follows: cryo-EM structure.

This is an account of results in doi:10.64898/2025.12.10.693372.

A word on the stoichiometry N: it is a count of units in the complex or per binding partner.

Turning to “SARS-CoV-2 Omicron JD.1.1 spike (S-6P) (from UniProt P0DTC2 14-1211) (natural protein)”, the stoichiometry N in test [1] is 3.
The substance “SARS-CoV-2 Omicron LP.8.1 spike (S-6P) (from UniProt P0DTC2 14-1211) (natural protein)” returned a stoichiometry N in test [2] of 3.
